This note sets out measurements from publication PMC4552428, “Distinct Actin and Lipid Binding Sites in Ysc84 Are Required during Early Stages of Yeast Endocytosis” (PLoS ONE, 2015).

What is called Kd is the equilibrium constant for the complex coming apart. A lower Kd goes with a tighter complex.

The experiment has as its target Rabbit skeletal muscle actin (rabbit, UniProt P68135 1-377). Description: MST; microscale thermophoresis of Ysc84-Nt with monomeric (G-) actin; conditions not shown (S1 File). Conditions: both partners purified.

B1: 6xHis tagged Ysc84-Nt (wild type, N-terminal YAB domain) (domain or fragment)
chain: MGINNPIPRSLKSETKKAAKVLRSFVKPNQVFGADQVIPPYVLKRAKGLAIITVLKAGFLFSGRAGSGVIVARLKDGTWSAPSAIAMAGAGAGGMVGVELTDFVFILNSEEAVRSFSEFGTITLGGNVSVSAGPLGRSAEAAASASTGGVSAVFAYSKSKGLFAGVSVEGSAILERREANRKFYGDNCTSKMILSGRVKVPPAADPLLRILESRAFNF
notes: The His tag was detected on this protein on PIP strips; no cleavage is described; also called Ysc84-Nt WT; wild-type Ysc84-Nt; source: E. coli BL21 DE3, purified (HisTrap HP nickel column)
The molecule B1 yielded a Kd of 850 nM.
